This is an account of results in the supplement of paper PMC9170038.

The test system of this series is MS2 coat protein. Put plainly: apparent KD of MS2 coat protein; designed switch direction (-1 OFF switch, 1 ON switch): -1; higher = weaker reporter binding. Put shortly: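 On Illumina chips, designed RNA switches with common flanks were made by stalled E. coli RNA polymerase. Titrations with SNAP-549-labelled MS2 coat protein, doubling from 0.7 or 1.5 nM to 3 µM, were done with no input, with 200 uM small-molecule ligand, or with an oligonucleotide input. Apparent KD is the median per design over clusters, from curve fits of normalised cluster fluorescence.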

[1] abbreviates: Eterna round: R95, input ligand: FMN 200 uM.
Setting [2] is: Eterna round: R95, input ligand: microRNA oligo, concentration not stated.
Where [3] appears, read: Eterna round: R95, input ligand: none.
[4] abbreviates: input ligand: microRNA oligo, concentration not stated.

As for “AGAUGUAGAUACCGAUCCUACAUGAGGAUCACCCAUGUAGCAAGACGUGCACGCGAAGCUCGUCAGACUACCAGAAG [salish99_TOv1_r3_083] (puzzle: Sensor v3, turn-off variant 1)”, the “apparent KD of MS2 coat protein” value stood at 114 nM under setting [1], 99.7 nM under setting [2] and 137 nM under setting [3].
For “AGAUGUAGAUACCGAUCCUACAUGAGGAUCACCCAUGUAGCUAGACGUGCCCGCGUCGCUCGUCAGACUACCAGUAG [salish99_TOv1_r3_090] (puzzle: Sensor v3, turn-off variant 1)” the same measures were 252 nM, 248 nM and 269 nM.
Regarding “AGAUGUCCGCAGGAUAUGCGGGCGAGGCCCUAAGCAGAAGGGCGGACAUGAGGAUCACCCAUGUGAGUAAAAGA [EX6 A.23] (Eterna round: R97, puzzle: Exclusion 6)”, the “apparent KD of MS2 coat protein” value (input ligand: FMN 200 uM) came out at 94.2 nM and the “apparent KD of MS2 coat protein” value (input ligand: none) was found to be 25.2 nM.
Taken in the same sequence, the figures for “AGAUUAAAAGUAAGGAUAUGAUGCAGGAAACUGCGUCAGAAGGUACAUGAGGAUCACCCAUGUUAAACUAAUUU [Explosion 6 - Jieux - Brourd's mod of Exclusion 4] (Eterna round: R97, puzzle: Brourd's mod of Exclusion 4)” were 19.4 nM and 14.4 nM.
Taken in the same sequence, the figures for “AGAUUACAUGAGGAUCACCCAUGUCAGGAUAUCGACUGAACAGCUUCGGCUGUUCAGUCGAGAAGGGACAAUUA [Brourdxlusion 10 - Jieux - Exclusion 1] (Eterna round: R97, puzzle: Exclusion 1)” were 122 nM and 59.7 nM.
In the case of “AGCAGACGAGGAUAUAAAUUUAAAUACAUGAGGAUCACCCAUGUAUAAAUGUAUUUAAAUUUAGAAGGCGUCUGCU [E5/12-A1] (Eterna round: R97, puzzle: Exclusion 5)”, the “apparent KD of MS2 coat protein” value came to 793 nM (input ligand: FMN 200 uM) and 710 nM (input ligand: none).
Regarding “AGCAGACGAGGAUAUAGAUUUGAUAACAUGAGGAUCACCCAUGUGAUCGAUAGAUCAGAUUUAGAAGGCGUCUGCU [E5/8-A1] (Eterna round: R97, puzzle: Exclusion 5)”, the “apparent KD of MS2 coat protein” value reads like this: (input ligand: FMN 200 uM) 412 nM; (input ligand: none) 525 nM.
Taken in the same sequence, the figures for “AGCAGACGAGGAUAUGAUAAUUAAUACAUGAGGAUCACCCAUGUAAUACUGAUCGAUAGAUCAGAAGGCGUCUGCU [E5/3-A2] (Eterna round: R97, puzzle: Exclusion 5)” were 14.7 nM and 16.4 nM.
In the case of “AGCAUGCUAGGAUAUACGAAACAUUAGGGUUCUUUGUAUAAACAUGAGGAUCACCCAUGUAGAAGGAGCGUGCA [Mat - Exclusion 2 - Mod of Hyphema - D97] (puzzle: Exclusion 2)”, the “apparent KD of MS2 coat protein” value under setting [2] is 40.9 nM.
Consider “AGCCAAGCAGGAUAUGCCCGGAAUAACAUGAGGAUCACCCAUGUGACCGAUUGAUGUUCUGCAGAAGGGCUUGGAA [Erxesoan mod] (Eterna round: R97, puzzle: Exclusion 5)”, for which the “apparent KD of MS2 coat protein” value amounted to 214 nM (input ligand: FMN 200 uM) and 28.8 nM (input ligand: none).
As for “AGCCUACAUGAGGAUCACCCAUGUCAGGAUAUCUCGCGACGUGUCGGGAACACGUUGCAGAGAAGGGACUCGGG [Labezadi] (puzzle: Exclusion 1)”, under setting [2], the “apparent KD of MS2 coat protein” value worked out at 51.8 nM.
As for “AGCCUAGCAGGAUAUGCCCGGGAUAACAUGAGGAUCACCCAUGUGACCGAUUGAUGUCUUGCAGAAGGGCUAGGGA [JL-EX5-4.02 ViennaUCT mod] (Eterna round: R97, puzzle: Exclusion 5)”, the “apparent KD of MS2 coat protein” value amounted to 58.4 nM (input ligand: FMN 200 uM) and 15.7 nM (input ligand: none).
Turning to “AGCGAAUAGCUAGGAUAUGAGAAUAGAUAGAGCUCAGAAGGAGCACAUGAGGAUCACCCAUGUAAAGUCUUGAGGCUGCGUGGU [Prohibition 16 - Jieux - Exclusion NG 1] (Eterna round: R96, puzzle: Exclusion NG 1)”, the “apparent KD of MS2 coat protein” value (input ligand: FMN 200 uM) was 79.5 nM, the “apparent KD of MS2 coat protein” value under setting [4] stood at 27.2 nM and the “apparent KD of MS2 coat protein” value (input ligand: none) amounted to 66.3 nM.
In the case of “AGCGAGACAGGAUAUACUUGAGGAUCACCCAAGUCACAAAGGGUCUCACUCUUCACUAGUAGAAGGGUCGUGUA [Lereer] (Eterna round: R97, puzzle: Exclusion 3)”, the “apparent KD of MS2 coat protein” value is, setting by setting: (input ligand: FMN 200 uM) 24.1 nM; (input ligand: none) 18.7 nM.
For “AGCGAGGCAGGAUAUACAUGAGGAUCACCCAUGUGCUUGUAUGGCGUGGAACAUCGUAGUAGAAGGGCCGCGCC [EX3 #77] (Eterna round: R97, puzzle: Exclusion 3)” the same measures were 28.4 nM and 22.2 nM.
Taken in the same sequence, the figures for “AGCGAGGUAGGAUAUACAUGAGGAUCACCCAUGUGCUUGCAUGGCGUGGAAUGUCGAGGUAGAAGGGCCAUGCC [EX3 #72] (Eterna round: R97, puzzle: Exclusion 3)” were 33.2 nM and 27.2 nM.
Consider “AGCGCCAUCGUGAGAUGGCGUAUUACAUGAGGAUCACCCAUGUAGGAUAUCGAUUGCUUUGCAGUCGAGAAGGGCAUGUCCCAG [JL ENG3 3.80 Mod J] (Eterna round: R96, puzzle: Exclusion NG 3)”, for which the “apparent KD of MS2 coat protein” value (input ligand: FMN 200 uM) was 23 nM, the “apparent KD of MS2 coat protein” value under setting [4] came to 19.2 nM and the “apparent KD of MS2 coat protein” value (input ligand: none) was 24.1 nM.
For “AGCUAGUCAGGAUAUACGAACACCUCAAAAGAGGUGAAGGGACAUGAGGAUCACCCAUGUAGAAGGGACUAGCA [Mat - Exclusion 2 - JL mod - D29] (Eterna round: R96, puzzle: Exclusion 2)” the same measures were 167 nM, 21.3 nM and 24.3 nM.
As for “AGCUGACGAGGAUAUACAUGAGGAUCACCCAUGUUGGUCAAGCGACUUCGGUCGCAAUGUAGAAGGCGUCAGCU [E3/8-A4] (Eterna round: R97, puzzle: Exclusion 3)”, the “apparent KD of MS2 coat protein” value reads like this: (input ligand: FMN 200 uM) 263 nM; (input ligand: none) 430 nM.
For “AGCUGACGAGGAUAUACAUGAGGAUCACCCAUGUUGGUUCAGCGACGAUAGUCGCAAUGUAGAAGGCGUCAGCU [E3/9-A1] (Eterna round: R97, puzzle: Exclusion 3)” the same measures were 77.4 nM and 496 nM.
For “AGCUGUGGCCAAGGAUAUCCAGCCUUAAAUACCGACGUAUAGUCGGACAUGAGGAUCACCCAUGUGGAGAAGGUGGUCUCAGCA [Eli eng2 - 040] (Eterna round: R96, puzzle: Exclusion NG 2)”, the “apparent KD of MS2 coat protein” value by setting is: (input ligand: FMN 200 uM) 109 nM; under setting [4], 45 nM; (input ligand: none) 56.8 nM.
For “AGCUGUGGCCGAGGAUAUCACGAACCAUGGAAAACCAUGGAAACUCUACAUGAGGAUCACCCAUGUGAGAAGGCGGUCUCAGCA [Eli eng2 - 022] (Eterna round: R96, puzzle: Exclusion NG 2)” the same measures were 87.7 nM, 21.6 nM and 35.2 nM.
Taken in the same sequence, the figures for “AGCUGUGGCCGAGGAUAUCCAACCUUAAAUACCGACGUAUAGUCGGACAUGAGGAUCACCCAUGUGGAGAAGGCGGUCUCAGCA [Eli eng2 - 039] (Eterna round: R96, puzzle: Exclusion NG 2)” were 62.5 nM, 28 nM and 47.1 nM.
For “AGCUGUGGCCGAGGAUAUCCACAUGAGGAUCACCCAUGUUGAUACGCCGUUAGGCGAUAUAGAAGGGAGAAGGCGGUCUCAGCA [Eli eng2 - 050] (Eterna round: R96, puzzle: Exclusion NG 2)” the same measures were 7.84 nM, 7.26 nM and 13.7 nM.
As for “AGCUGUGGCCGAGGAUAUCUAAACUCAAUAACCGAAAUAUAAUCGGACAUGAGGAUCACCCAUGUAGAGAAGGCGGUCUCAGCA [Eli eng2 - 081] (Eterna round: R96, puzzle: Exclusion NG 2)”, the “apparent KD of MS2 coat protein” value under setting [4] stood at 28 nM.
The same measure, in the same setting: then “AGCUGUGGCCGAGGAUAUCUAUCCAAUAUAACCGAAAUAUAAUCGGACAUGAGGAUCACCCAUGUAGAGAAGGCGGUCUCAGCA [Eli eng2 - 093] (Eterna round: R96, puzzle: Exclusion NG 2)”, with 15.3 nM; and “AGCUGUGGCCGAGGAUAUCUAUCCCAAAUAACCGAAAUAUAAUCGGACAUGAGGAUCACCCAUGUAGAGAAGGCGGUCUCAGCA [Eli eng2 - 088] (Eterna round: R96, puzzle: Exclusion NG 2)”, with 20.4 nM; and “AGCUGUGGCCGAGGAUAUCUGUUCCAUAUAACCGAAAUAUAAUCGGACAUGAGGAUCACCCAUGUAGAGAAGGCGGUCUCAGCA [Eli eng2 - 100] (Eterna round: R96, puzzle: Exclusion NG 2)”, with 18.8 nM.
For the sequence “AGCUGUGGCCGAGGAUAUGACAUGAGGAUCACCCAUGUACACGAUUAGGCCUGGUAACAGGCUCAUCAGAAGGCGGUCUCAGCA [Eli eng2 - 017] (Eterna round: R96, puzzle: Exclusion NG 2)”, the “apparent KD of MS2 coat protein” value by setting is: (input ligand: FMN 200 uM) 9.77 nM; under setting [4], 10.4 nM; (input ligand: none) 13 nM.
For “AGCUGUGGCCGAGGAUAUGACAUGAGGAUCACCCAUGUACAUAAUUAGGCCUGGUAACAGGCUCGUCAGAAGGCGGUCUCAGCA [Eli eng2 - 007] (Eterna round: R96, puzzle: Exclusion NG 2)” the same measures were 12.3 nM, 8.31 nM and 12.6 nM.
For the sequence “AGCUGUGGCCGAGGAUAUGACAUGAGGAUCACCCAUGUACAUAAUUAGGCCUGGUAACAGGCUCUUCAGAAGGCGGUCUCAGCA [Eli eng2 - 006] (Eterna round: R96, puzzle: Exclusion NG 2)”, the “apparent KD of MS2 coat protein” value (input ligand: FMN 200 uM) turned out to be 7.27 nM, the “apparent KD of MS2 coat protein” value under setting [4] came to 6.45 nM and the “apparent KD of MS2 coat protein” value (input ligand: none) was determined as 11.8 nM.
